Assay results: the MegaScale stability set (Tsuboyama et al. 2023)

B1: 5KPH (parent)
chain: EEKRQVKQVAKEKLLEQSPNSKVQVRRVQKQGNTIRVELELRTNGKKENYTVEVERQGNTWTVKRITRT
B2: EEHEE_rd3_0130 (parent)
chain: TKIIVNGKTFTAPTEEEAQKIAEKLAKKAGLTVHKKNGTFELK

Variants of: B1
Assay: folding stability dG (cDNA display proteolysis); higher = more stable
Conditions: PBS, room temperature

Folding stability dG [kcal/mol], by site and new letter:
E2: D 3.9 | S 3.47 | C 3.69 | G 3.24 | V 3.73 | F 3.16 | W 4.05 | K 2.91 | A 3.63 | P 2.94 | T 3.74 | M 3.58 | R 3.19 | Q 3.9 | L 3.66 | Y 3.08 | H 3.5 | I 3.93 | N 3.28
Q5: S 3.84 | M 4.07 | T 3.93 | H 3.77 | G 3.64 | W 3.62 | K 3.86 | A 3.93 | E 3.88 | R 4.19 | Y 3.64 | I 3.95 | C 3.54 | V 3.73 | N 3.54 | F 3.83 | D 3.73 | L 3.9 | P 2.86
E1: T 3.46 | H 3.61 | S 3.56 | C 3.69 | P 3.19 | M 3.33 | L 3.06 | K 3.85 | Q 3.64 | R 3.25 | F 3 | I 2.88 | D 3.52 | N 3.37 | V 3.38 | G 3.49 | Y 2.92 | A 3.75 | W 2.91
R4: Y 3.64 | F 3.64 | P 2.55 | N 3.72 | E 4.22 | C 3.57 | D 3.98 | T 3.69 | W 3.79 | G 3.38 | V 3.34 | Q 3.81 | A 3.86 | M 3.84 | H 3.79 | S 3.72 | I 3.04 | L 3.54 | K 3.9
K3: H 4.2 | T 4.31 | N 4.25 | D 4.41 | E 4.84 | F 4.65 | C 4.21 | S 4.17 | P 3.01 | A 4.28 | G 3.73 | Q 4.19 | W 4.88 | R 4.07 | V 4.72 | M 4.84 | Y 4.74

Variants of: B2
Assay: as above
Conditions: PBS, room temperature

Folding stability dG [kcal/mol] of substitutions, site by site:
F40: Q 0.083 | M 0.218 | N 0.021 | H 0.087 | D 0.04 | G -0.038 | V 0.436 | S 0.04 | Y 0.608 | T -0.035 | I 0.784 | A -0.34 | W 0.271 | C 0.982 | P 0.146 | R -0.061 | E 0.251 | L 0.724 | K -0.039
E41: V 1.09 | Q 0.186 | M 0.498 | H 0.56 | W 1.45 | F 1.45 | C 1.19 | Y 1.85 | L 0.903 | K -0.978 | I 1.48 | D -0.202 | T -0.004 | P 0.028 | R -0.631
L42: Y 0.019 | I 0.782 | F -0.203 | N 0.089 | E 0.201 | Q 0.021 | T 0.203 | P 0.076 | S 0.186 | H 0.251 | M 0 | A 0.214 | W 0.069 | R -0.081 | G 0.249 | K 0.146 | D 0.274 | V 0.79
K43: M 0.985 | H 0.826 | G 0.476 | E 0.545 | V 1.3 | R 1.07 | W 1.16 | A 0.626 | N 0.532 | D 0.338 | C 1.76 | P -0.2 | Q 0.615 | I 1.33 | Y 1.15 | S 0.91 | L 1.18 | F 1.13 | T 1.07
T39: Y 1.57 | V 1.39 | W 1.3
